{
  "source": "the Human Domainome abundance scans (Beltran et al. 2025)",
  "parents": {"B1": {"name": "Zinc finger protein ZIC 2, residues 250 to 295; numbered along this chain, O95409 (parent)", "chain": "QCIKQELICKWIDPEQLSNPKKSCNKTFSTMHELVTHVSVEHVGGP"}},
  "note": "± gives the uncertainty stated by the source.",
  "data": [
    {"variants_of": "B1", "assay": "abundance fitness (aPCA) (normalised: wild type 0, dead -1); higher = more abundant; growth selection in yeast, the domain comes from the species named", "conditions": "Homo sapiens", "values": [
      {"variant": "QCIKQELICKWIDPEQLSNPKKSCNKTFSTMHELVTHVIVEHVGGP", "note": "[S39I]", "abundance fitness": "-0.681 ± 0.14"},
      {"variant": "QCIKQELICKWIDPEQLSNPKKSCNKTFSTMHELVTHVAVEHVGGP", "note": "[S39A]", "abundance fitness": "0.129 ± 0.088"},
      {"variant": "QCIKQELICKWIDPEQLSNPKKSCNKTFSTMHELVTHVTVEHVGGP", "note": "[S39T]", "abundance fitness": "-0.065 ± 0.093"},
      {"variant": "QCIKQELICKWIDPEQLSNPKKSCNKTFSTMHELVTHVPVEHVGGP", "note": "[S39P]", "abundance fitness": "-0.666 ± 0.12"},
      {"variant": "QCIKQELICKWIDPEQLSNPKKSCNKTFSTMHELVTHVCVEHVGGP", "note": "[S39C]", "abundance fitness": "-0.016 ± 0.11"},
      {"variant": "QCIKQELICKWIDPEQLSNPKKSCNKTFSTMHELVTHVQVEHVGGP", "note": "[S39Q]", "abundance fitness": "0.296 ± 0.1"},
      {"variant": "QCIKQELICKWIDPEQLSNPKKSCNKTFSTMHELVTHVVVEHVGGP", "note": "[S39V]", "abundance fitness": "-0.357 ± 0.091"},
      {"variant": "QCIKQELICKWIDPEQLSNPKKSCNKTFSTMHELVTHVYVEHVGGP", "note": "[S39Y]", "abundance fitness": "-0.873 ± 0.14"},
      {"variant": "QCIKQELICKWIDPEQLSNPKKSCNKTFSTMHELVTHVEVEHVGGP", "note": "[S39E]", "abundance fitness": "0.334 ± 0.092"},
      {"variant": "QCIKQELICKWIDPEQLSNPKKSCNKTFSTMHELVTHVNVEHVGGP", "note": "[S39N]", "abundance fitness": "-0.007 ± 0.11"},
      {"variant": "QCIKQELICKWIDPEQLSNPKKSCNKTFSTMHELVTHVFVEHVGGP", "note": "[S39F]", "abundance fitness": "-0.663 ± 0.11"},
      {"variant": "QCIKQELICKWIDPEQLSNPKKSCNKTFSTMHELVTHVHVEHVGGP", "note": "[S39H]", "abundance fitness": "-0.241 ± 0.13"},
      {"variant": "QCIKQELICKWIDPEQLSNPKKSCNKTFSTMHELVTHVDVEHVGGP", "note": "[S39D]", "abundance fitness": "0.414 ± 0.1"},
      {"variant": "QCIKQELICKWIDPEQLSNPKKSCNKTFSTMHELVTHVWVEHVGGP", "note": "[S39W]", "abundance fitness": "-0.292 ± 0.097"},
      {"variant": "QCIKQELICKWIDPEQLSNPKKSCNKTFSTMHELVTHVMVEHVGGP", "note": "[S39M]", "abundance fitness": "-0.274 ± 0.11"},
      {"variant": "QCIKQELICKWIDPEQLSNPKKSCNKTFSTMHELVTHVGVEHVGGP", "note": "[S39G]", "abundance fitness": "-0.019 ± 0.086"},
      {"variant": "QCIKQELICKWIDPEQLSNPKKSCNKTFSTMHELVTHVRVEHVGGP", "note": "[S39R]", "abundance fitness": "0.056 ± 0.087"},
      {"variant": "QCIKQELICKWIDPEQLSNPKKSCNKTFSTMHELVTHVLVEHVGGP", "note": "[S39L]", "abundance fitness": "-0.356 ± 0.091"},
      {"variant": "QCIKQELICKWIDPEQLSNPKKSCNKTFSTMHELVTHVSVVHVGGP", "note": "[E41V]", "abundance fitness": "-0.125 ± 0.086"},
      {"variant": "QCIKQELICKWIDPEQLSNPKKSCNKTFSTMHELVTHVSVPHVGGP", "note": "[E41P]", "abundance fitness": "-1.04 ± 0.12"},
      {"variant": "QCIKQELICKWIDPEQLSNPKKSCNKTFSTMHELVTHVSVWHVGGP", "note": "[E41W]", "abundance fitness": "-0.387 ± 0.1"},
      {"variant": "QCIKQELICKWIDPEQLSNPKKSCNKTFSTMHELVTHVSVRHVGGP", "note": "[E41R]", "abundance fitness": "-0.377 ± 0.088"},
      {"variant": "QCIKQELICKWIDPEQLSNPKKSCNKTFSTMHELVTHVSVLHVGGP", "note": "[E41L]", "abundance fitness": "-0.487 ± 0.089"},
      {"variant": "QCIKQELICKWIDPEQLSNPKKSCNKTFSTMHELVTHVSVAHVGGP", "note": "[E41A]", "abundance fitness": "-0.07 ± 0.089"},
      {"variant": "QCIKQELICKWIDPEQLSNPKKSCNKTFSTMHELVTHVSVGHVGGP", "note": "[E41G]", "abundance fitness": "-0.279 ± 0.087"},
      {"variant": "QCIKQELICKWIDPEQLSNPKKSCNKTFSTMHELVTHVSVNHVGGP", "note": "[E41N]", "abundance fitness": "-0.044 ± 0.11"},
      {"variant": "QCIKQELICKWIDPEQLSNPKKSCNKTFSTMHELVTHVSVTHVGGP", "note": "[E41T]", "abundance fitness": "0.032 ± 0.094"},
      {"variant": "QCIKQELICKWIDPEQLSNPKKSCNKTFSTMHELVTHVSVFHVGGP", "note": "[E41F]", "abundance fitness": "-0.405 ± 0.13"},
      {"variant": "QCIKQELICKWIDPEQLSNPKKSCNKTFSTMHELVTHVSVMHVGGP", "note": "[E41M]", "abundance fitness": "-0.338 ± 0.1"},
      {"variant": "QCIKQELICKWIDPEQLSNPKKSCNKTFSTMHELVTHVSVQHVGGP", "note": "[E41Q]", "abundance fitness": "0.084 ± 0.098"},
      {"variant": "QCIKQELICKWIDPEQLSNPKKSCNKTFSTMHELVTHVSVSHVGGP", "note": "[E41S]", "abundance fitness": "0.032 ± 0.087"},
      {"variant": "QCIKQELICKWIDPEQLSNPKKSCNKTFSTMHELVTHVSVKHVGGP", "note": "[E41K]", "abundance fitness": "-0.269 ± 0.11"},
      {"variant": "QCIKQELICKWIDPEQLSNPKKSCNKTFSTMHELVTHVSVYHVGGP", "note": "[E41Y]", "abundance fitness": "-0.226 ± 0.12"},
      {"variant": "QCIKQELICKWIDPEQLSNPKKSCNKTFSTMHELVTHVSVDHVGGP", "note": "[E41D]", "abundance fitness": "-0.093 ± 0.11"},
      {"variant": "QCIKQELICKWIDPEQLSNPKKSCNKTFSTMHELVTHVSVIHVGGP", "note": "[E41I]", "abundance fitness": "-0.216 ± 0.12"},
      {"variant": "QCIKQELICKWIDPEQLSNPKKSCNKTFSTMHELVTHVSVCHVGGP", "note": "[E41C]", "abundance fitness": "0.03 ± 0.1"},
      {"variant": "QCIKQELICKWIDPEQLSNPKKSCNKTFSTMHELVNHVSVEHVGGP", "note": "[T36N]", "abundance fitness": "-0.232 ± 0.12"},
      {"variant": "QCIKQELICKWIDPEQLSNPKKSCNKTFSTMHELVFHVSVEHVGGP", "note": "[T36F]", "abundance fitness": "-0.483 ± 0.11"},
      {"variant": "QCIKQELICKWIDPEQLSNPKKSCNKTFSTMHELVAHVSVEHVGGP", "note": "[T36A]", "abundance fitness": "-0.178 ± 0.091"},
      {"variant": "QCIKQELICKWIDPEQLSNPKKSCNKTFSTMHELVYHVSVEHVGGP", "note": "[T36Y]", "abundance fitness": "-0.25 ± 0.11"},
      {"variant": "QCIKQELICKWIDPEQLSNPKKSCNKTFSTMHELVEHVSVEHVGGP", "note": "[T36E]", "abundance fitness": "-0.025 ± 0.097"},
      {"variant": "QCIKQELICKWIDPEQLSNPKKSCNKTFSTMHELVLHVSVEHVGGP", "note": "[T36L]", "abundance fitness": "-0.453 ± 0.089"},
      {"variant": "QCIKQELICKWIDPEQLSNPKKSCNKTFSTMHELVHHVSVEHVGGP", "note": "[T36H]", "abundance fitness": "-0.283 ± 0.12"},
      {"variant": "QCIKQELICKWIDPEQLSNPKKSCNKTFSTMHELVVHVSVEHVGGP", "note": "[T36V]", "abundance fitness": "-0.38 ± 0.088"},
      {"variant": "QCIKQELICKWIDPEQLSNPKKSCNKTFSTMHELVMHVSVEHVGGP", "note": "[T36M]", "abundance fitness": "-0.341 ± 0.1"},
      {"variant": "QCIKQELICKWIDPEQLSNPKKSCNKTFSTMHELVWHVSVEHVGGP", "note": "[T36W]", "abundance fitness": "-0.081 ± 0.097"},
      {"variant": "QCIKQELICKWIDPEQLSNPKKSCNKTFSTMHELVQHVSVEHVGGP", "note": "[T36Q]", "abundance fitness": "0.055 ± 0.1"},
      {"variant": "QCIKQELICKWIDPEQLSNPKKSCNKTFSTMHELVSHVSVEHVGGP", "note": "[T36S]", "abundance fitness": "0.018 ± 0.086"},
      {"variant": "QCIKQELICKWIDPEQLSNPKKSCNKTFSTMHELVDHVSVEHVGGP", "note": "[T36D]", "abundance fitness": "-0.068 ± 0.1"},
      {"variant": "QCIKQELICKWIDPEQLSNPKKSCNKTFSTMHELVGHVSVEHVGGP", "note": "[T36G]", "abundance fitness": "-0.032 ± 0.086"},
      {"variant": "QCIKQELICKWIDPEQLSNPKKSCNKTFSTMHELVCHVSVEHVGGP", "note": "[T36C]", "abundance fitness": "-0.236 ± 0.099"},
      {"variant": "QCIKQELICKWIDPEQLSNPKKSCNKTFSTMHELVKHVSVEHVGGP", "note": "[T36K]", "abundance fitness": "0.141 ± 0.095"},
      {"variant": "QCIKQELICKWIDPEQLSNPKKSCNKTFSTMHELVTHVSCEHVGGP", "note": "[V40C]", "abundance fitness": "-0.457 ± 0.11"},
      {"variant": "QCIKQELICKWIDPEQLSNPKKSCNKTFSTMHELVTHVSSEHVGGP", "note": "[V40S]", "abundance fitness": "0.001 ± 0.088"},
      {"variant": "QCIKQELICKWIDPEQLSNPKKSCNKTFSTMHELVTHVSMEHVGGP", "note": "[V40M]", "abundance fitness": "0.082 ± 0.099"},
      {"variant": "QCIKQELICKWIDPEQLSNPKKSCNKTFSTMHELVTHVSAEHVGGP", "note": "[V40A]", "abundance fitness": "-0.03 ± 0.089"}
    ]}
  ]
}
